# Reference: paper PMC13438699 (Nature Communications, 2026)
# Tests used:
# [1] = target: T1, A/Michigan/45/2015 (H1N1) HA (Influenza A virus A/Michigan/45/2015 …, UniProt A0A1J0CXU0, strain); experiment: BLI; conditions: both partners purified
# A/USSR/90/1977 (H1N1) HA = target: T2, A/USSR/90/1977 (H1N1) HA (Influenza A virus A/USSR/90/1977 (H1N1), UniProt P03453, strain); experiment: ELISA; conditions: one partner purified
# T2 construct: source: bought: Sino Biological
# [2] = target: T3, A/California/07/2009 (H1N1) HA (Influenza A virus A/California/07/2009 …, UniProt C3W5X2, strain); experiment: ELISA; conditions: one partner purified
# T3 construct: source: bought: BEI Resources (NR-42635)
# [3] = target: T4, A/Japan/305/1957 (H2N2) HA (Influenza A virus A/Japan/305/1957 …, UniProt Q0A2X3, strain); experiment: ELISA; conditions: one partner purified
# T4 construct: source: Sf9, baculovirus, purified from supernatant (Ni Sepharose Excel, SEC)
# [4] = target: T5, A/Taiwan/01/1986 (H1N1) HA (Influenza A virus A/Taiwan/1/1986 (H1N1), UniProt F5CU03, strain); experiment: ELISA; conditions: one partner purified
# T5 construct: source: bought: Sino Biological
# [5] = target: A/Beijing/262/1995 (H1N1) HA (Influenza A virus A/Beijing/262/1995 …, UniProt B4UPF7, strain); experiment: ELISA; conditions: one partner purified
# [6] = target: T1, A/Michigan/45/2015 (H1N1) HA; experiment: ELISA; conditions: one partner purified
# [7] = target: T6, A/Solomon Islands/3/2006 (H1N1) HA (influenza A virus A/Solomon …); experiment: ELISA; conditions: one partner purified
# [8] = target: T6, A/Solomon Islands/3/2006 (H1N1) HA; experiment: cryo-EM structure; conditions: both partners purified
# [9] = target: A/Texas/37/2024 (H5N1) HA (Influenza A virus A/Texas/37/2024 (H5N1), strain); experiment: BLI; conditions: both partners purified
Binder,binding result [1],binding result (A/USSR/90/1977 (H1N1) HA),binding result [2],binding result [4],binding result [7],binding result [8],further results
"047-09 4F04 Fab (Fab, V domains shown) VH: EVQLVESGGGLVQPGGSLRLSCAASGFTFNTYNMNWVRQAPGKGLEWVSYISSSSLSRYYADSVKGRFTISRDNAKNSLFLQMNSLRAEDTAVYYCARGAQAGYSSFFPPTTFWGQGTLVTVSS VL: EIVMTQSPATLSVSPGEGVTLSCRASQSVSSNLAWYQQKPGQAPRLLIYGASTRATGIPARFSGSGSGTEFTLTISSLQSEDFAVYYCQQYYNWPPLTFGGGTKVEIK",binds,–,–,–,–,–,–
"HB315 (IgG format) (antibody, V domains shown) VH: EVQLLESGGGLAQPGGSLRLSCTASGFTFSNFAMNWVRQAPGKGLEWVSFINSGSGSTYYADSVKGRFTISRDNSENTLFLQMNSLRAEDTAVYYCAKDLGRAIFGLVIPEGAFDIWGQGTMVTVSS VL: EIVMTQSPSSLSASVGDRVTITCRASQSINNHLNWYQQKPGKAPKLLIYAASSLQSGVPSRFSGSGSGTDFTLTISSLQPADFATYHCQQSYGVPLTFGQGTKVEIK",–,binds,binds,binds,binds,–,fold stronger binding activity than HB31 and HB34 (ELISA) [3]: ≥ 4 fold; binding result [5]: binds; binding result [6]: binds
"HB315 Fab (Fab, V domains shown) VH: EVQLLESGGGLAQPGGSLRLSCTASGFTFSNFAMNWVRQAPGKGLEWVSFINSGSGSTYYADSVKGRFTISRDNSENTLFLQMNSLRAEDTAVYYCAKDLGRAIFGLVIPEGAFDIWGQGTMVTVSS VL: EIVMTQSPSSLSASVGDRVTITCRASQSINNHLNWYQQKPGKAPKLLIYAASSLQSGVPSRFSGSGSGTDFTLTISSLQPADFATYHCQQSYGVPLTFGQGTKVEIK",binds,–,–,–,–,binds,–
"HB31 wild type (WT) Fab (Fab, V domains shown, also called HB31 WT Fab; HB31 Fab; source: Expi293F, transiently co-transfected, purified (CaptureSelect CH1-XL)) VH: EVQLLESGGGLVQPGGSLRLSCTVSGFTSSNYDMSWVRQAPGKGLEWVSGISGTGRDTYYADSVKGRFTISRDNSKNTLSLQMNSLRADDTAVYFCARDRPVLRYFDWQPYGLDVWGKGTTVTVSS VL: QSALTQPPSASGSPGQSVTISCTGTSSDVGGYNYVSWYQQYPSKAPKLMIYEVSKRPSGVPDRFSGSKSGNTASLTVSGLQAEDEADYYCNSYAGSNLYVFGTGTKVTVL",–,–,–,–,–,–,Kd [9]: 4.5 nM
"HB31 (IgG format) (antibody, V domains shown, also called HB31 wild type; WT) VH: EVQLLESGGGLVQPGGSLRLSCTVSGFTSSNYDMSWVRQAPGKGLEWVSGISGTGRDTYYADSVKGRFTISRDNSKNTLSLQMNSLRADDTAVYFCARDRPVLRYFDWQPYGLDVWGKGTTVTVSS VL: QSALTQPPSASGSPGQSVTISCTGTSSDVGGYNYVSWYQQYPSKAPKLMIYEVSKRPSGVPDRFSGSKSGNTASLTVSGLQAEDEADYYCNSYAGSNLYVFGTGTKVTVL",–,binds,binds,binds,binds,–,–
"HB31 Fab (Fab, V domains shown) VH: EVQLLESGGGLVQPGGSLRLSCTVSGFTSSNYDMSWVRQAPGKGLEWVSGISGTGRDTYYADSVKGRFTISRDNSKNTLSLQMNSLRADDTAVYFCARDRPVLRYFDWQPYGLDVWGKGTTVTVSS VL: QSALTQPPSASGSPGQSVTISCTGTSSDVGGYNYVSWYQQYPSKAPKLMIYEVSKRPSGVPDRFSGSKSGNTASLTVSGLQAEDEADYYCNSYAGSNLYVFGTGTKVTVL",binds,–,–,–,–,binds,–
"HB31 wild type (WT) IgG (antibody, V domains shown, copies: 2 + 2) VH: EVQLLESGGGLVQPGGSLRLSCTVSGFTSSNYDMSWVRQAPGKGLEWVSGISGTGRDTYYADSVKGRFTISRDNSKNTLSLQMNSLRADDTAVYFCARDRPVLRYFDWQPYGLDVWGKGTTVTVSS VL: QSALTQPPSASGSPGQSVTISCTGTSSDVGGYNYVSWYQQYPSKAPKLMIYEVSKRPSGVPDRFSGSKSGNTASLTVSGLQAEDEADYYCNSYAGSNLYVFGTGTKVTVL",–,–,–,–,–,–,Kd [9]: 1.6 nM
"HB34 (IgG format) (antibody, V domains shown) VH: EVQLLESGGGLVQPGGSLRLSCTVSGFTSSNYDMSWVRQAPGKGLEWVSGISGTGRDTYYADSVKGRFTISRDNSKNTLSLQMNSLRADDTAVYFCARDRPVLRYFDWQPYGLDVWGKGTTVTVSS VL: QSALTQPASVSGSPGQSITISCTGTSSDVGSYNLVSWYQQHPGKAPKLMIYEGSQRPSGVSNRFSGSKSGNTASLTISGLQAEDEADYYCCSYASSTSYVFGTGTKVTVL",–,binds,binds,binds,binds,–,binding result [5]: binds; binding result [6]: binds
"HB34 Fab (Fab, V domains shown) VH: EVQLLESGGGLVQPGGSLRLSCTVSGFTSSNYDMSWVRQAPGKGLEWVSGISGTGRDTYYADSVKGRFTISRDNSKNTLSLQMNSLRADDTAVYFCARDRPVLRYFDWQPYGLDVWGKGTTVTVSS VL: QSALTQPASVSGSPGQSITISCTGTSSDVGSYNLVSWYQQHPGKAPKLMIYEGSQRPSGVSNRFSGSKSGNTASLTISGLQAEDEADYYCCSYASSTSYVFGTGTKVTVL",binds,–,–,–,–,binds,–
"CR9114 Fab (Fab, V domains shown, source: Expi293F, transient co-transfection, purified (CaptureSelect CH1-XL)) VH: QVQLVQSGAEVKKPGSSVKVSCKSSGGTSNNYAISWVRQAPGQGLDWMGGISPIFGSTAYAQKFQGRVTISADIFSNTAYMELNSLTSEDTAVYFCARHGNYYYYSGMDVWGQGTTVTVSS VL: QSALTQPPAVSGTPGQRVTISCSGSDSNIGRRSVNWYQQFPGTAPKLLIYSNDQRPSVVPDRFSGSKSGTSASLAISGLQSEDEAEYYCAAWDDSLKGAVFGGGTQLTVL",binds,–,–,–,–,–,–
